Test results from article PMC3741120, “A Sperm–Plasma β-N-Acetyl-D-Hexosaminidase Interacting with a Chitinolytic β-N-Acetyl-D-Hexosaminidase in Insect Molting Fluid” (PLoS ONE, 2013).

Columns and labels:
purified protein [1] = substrate: CC(=O)N[C@H]1[C@H](Oc2ccc([N+](=O)[O-])cc2)O[C@H](CO)[C@@H](O)[C@@H]1O; test: purified protein; format: biochemical, Ostrinia furnacalis; conditions: Britton-Robinson buffer (pH of kinetics not given), 25°C, 30 min
purified protein [2] = substrate: CC(=O)N[C@H]1[C@H](Oc2ccc([N+](=O)[O-])cc2)O[C@H](CO)[C@H](O)[C@@H]1O; test: purified protein; format: biochemical, Ostrinia furnacalis; conditions: Britton-Robinson buffer (pH of kinetics not given), 25°C, 30 min

B1: OfHex3 (Ostrinia furnacalis) (protein)
chain: NENEIKDPTPIVYEPSWVFKCIPNVGCQRAAHPQSMMTTNSSHVFYDSIDLCRTVCGRFGGIWPKPLTAGLSMQTVQMHPTHLRYDLSDVPAEARELIAQMTQVASSNLLAECRGNVTEVVDTPVVVYLVVTSENLDLTWDTDEKYDLDVQTKNQKVSVTITAATVYGARHGLETFTQLVTADRPEYSDQTRCALRVISGARIKDYPAYRHRGLVLDTSRHFIPMKDIKRTIDGMAASKLNVFHWHVTDSHSFPLESTRVPQFTRYGAYSSSEIYSAEEVRQLIKYAQIRGVRVVIEIDSPAHAGNGWQWGQDYGFGDLAVCVNTEPWRGLCIQPPCGQLNPANPTMYRVLRNLYKDLAEALPKPALFHMGGDEVFFPCWNSSEQIRAYMQEKGLNTTTEGFLRLWSEFHETILSIWDEELKAIGTDAQPVILWSSALTKSNYVQRFLNKDRYVIEVWEPLDSPLLMELLRLGYRTISVPKDVWYLDHGFWGSTKFSNWRRMYAYILPKSQHMLGGEVAMWSEYVDKEVLDTRIWPRAAAVAERLWADPMSTASAAEPRLQRFRSRLQARGLRPDAMSPAWCEQHDGRCL
notes: mature protein without signal peptide (residues 1-18 removed; ORF 609 residues); C-terminal 6xHis, N-terminal alpha-factor secretion signal; Pichia pastoris GS115; glycosylated, 75 kDa on SDS-PAGE
Purified protein [1]
  Km: 1627 µM
  kcat: 27.7 s⁻¹
  kcat/Km: 17000 M⁻¹ s⁻¹
Purified protein [2]
  Km: 2673 µM
  kcat: 5.63 s⁻¹
  kcat/Km: 2110 M⁻¹ s⁻¹
